Reference: paper PMC12576456

What was measured:
[1] = target: YFT1-C^S927A/S1118A (cYFP fusion) (tomato (Solanum lycopersicum)); experiment: split reporter (BiFC, NanoBiT); BiFC: nYFP-SlTFT1 with YFT1-C derivatives fused to cYFP, transiently co-transformed into N. benthamiana leaves via Agrobacterium; YFP by confocal microscopy, intensity by ImageJ
[2] = target: YFT1-C^S927D/S1118D (cYFP fusion) (tomato (Solanum lycopersicum)); experiment: as above

nYFP-SlTFT1 (natural protein)
BiFC YFP fluorescence, percent of YFT1-C [1]: 67% | BiFC YFP fluorescence, percent of YFT1-C [2]: 114%
